Target: nominally empty recombinant adeno-associated virus 5 capsid (adeno-associated virus 5 (recombinant, rAAV5)) (UniProt Q9YIJ1)
Assay: SEC-MALS; Superose 6 Increase (10/300), phosphate-buffered saline as mobile phase, 0.8 mL/min, column and detectors at 30 °C, samples kept at 4 °C before injection; RI, UV and RALS/LALS detection; whole capsid with whole capsid (dimer of capsids)

Question: “nominally empty recombinant adeno-associated virus 5 capsid (from UniProt Q9YIJ1 1-724) (complex)” was tested. Which fraction of sample (%) in the dimer peak did it give?
Answer: 7.2%

Question: What about the stoichiometry N of the same substance?
Answer: 2
